Measured values reported in US20240141072A1 (published 2024).
Blank lines part the entries; values can stand above or below the binder they belong to.

Key:
[1] = target: DH1 anti-DLL3 trispecific protein; assay: Octet BLI, DLL3-Fc on anti-human Fc tips, single 50 nM
Method: (§1) Using conditioned media containing known concentrations of anti-DLL3 trispecific proteins, the binding affinities of the anti-DLL3 trispecific proteins toward human and cynomolgus monkey DLL3 proteins were measured, using a method where the DLL3 proteins were expressed as human IgG1-Fc fusions and the measurements were carried out using an Octet instrument with anti-human Fc tips.

[2] = target: DH10 anti-DLL3 trispecific protein; assay: as above
Method: as §1

[3] = target: DH11 anti-DLL3 trispecific protein; assay: as above
Method: as §1

[4] = target: DH12 anti-DLL3 trispecific protein; assay: as above
Method: as §1

[5] = target: DH15 anti-DLL3 trispecific protein; assay: as above
Method: as §1

[6] = target: DH17 anti-DLL3 trispecific protein; assay: as above
Method: as §1

[7] = target: DH18 anti-DLL3 trispecific protein; assay: as above
Method: as §1

[8] = target: DH2 anti-DLL3 trispecific protein; assay: as above
Method: as §1

[9] = target: DH22 anti-DLL3 trispecific protein; assay: as above
Method: as §1

[10] = target: DH23 anti-DLL3 trispecific protein; assay: as above
Method: as §1

[11] = target: DH27 anti-DLL3 trispecific protein; assay: as above
Method: as §1

[12] = target: DH29 anti-DLL3 trispecific protein; assay: as above
Method: as §1

[13] = target: DH3 anti-DLL3 trispecific protein; assay: as above
Method: as §1

[14] = target: DH38 anti-DLL3 trispecific protein; assay: as above
Method: as §1

[15] = target: DH42 anti-DLL3 trispecific protein; assay: as above
Method: as §1

[16] = target: DH43 anti-DLL3 trispecific protein; assay: as above
Method: as §1

[17] = target: DH45 anti-DLL3 trispecific protein; assay: as above
Method: as §1

[18] = target: DH5 anti-DLL3 trispecific protein; assay: as above
Method: as §1

[19] = target: DH51 anti-DLL3 trispecific protein; assay: as above
Method: as §1

[20] = target: DH54 anti-DLL3 trispecific protein; assay: as above
Method: as §1

[21] = target: DH56 anti-DLL3 trispecific protein; assay: as above
Method: as §1

[22] = target: DH58 anti-DLL3 trispecific protein; assay: as above
Method: as §1

[23] = target: DH6 anti-DLL3 trispecific protein; assay: as above
Method: as §1

[24] = target: DH61 anti-DLL3 trispecific protein; assay: as above
Method: as §1

[25] = target: DH67 anti-DLL3 trispecific protein; assay: as above
Method: as §1

[26] = target: DH69 anti-DLL3 trispecific protein; assay: as above
Method: as §1

[27] = target: DH70 anti-DLL3 trispecific protein; assay: as above
Method: as §1

[28] = target: DH80 anti-DLL3 trispecific protein; assay: as above
Method: as §1

[29] = target: DH82 anti-DLL3 trispecific protein; assay: as above
Method: as §1

[30] = target: DH83 anti-DLL3 trispecific protein; assay: as above
Method: as §1

[31] = target: DH84 anti-DLL3 trispecific protein; assay: as above
Method: as §1

[32] = target: DH89 anti-DLL3 trispecific protein; assay: as above
Method: as §1

[33] = target: DH92 anti-DLL3 trispecific protein; assay: as above
Method: as §1

[34] = target: DH94 anti-DLL3 trispecific protein; assay: as above
Method: as §1

[35] = target: DH3 anti-DLL3 trispecific protein; assay: Octet BLI, single 50 nM
Method: as §1

[36] = target: T1, 52C4 anti-DLL3 trispecific protein (CHO expressed, purified) (biotinylated); assay: Octet BLI, biotinylated trispecific on streptavidin tips
T1 construct: also called 52C04

[37] = target: DH43 anti-DLL3 trispecific protein; assay: Octet BLI, 60/20/6.67/2.22 nM
Method: (§2) Using the conditioned medium with known concentrations of the anti-DLL3 trispecific proteins, the binding affinities of the anti-DLL3 trispecific proteins toward human DLL3 protein were measured using a method where biotinylated version of human DLL3 protein were expressed as a human IgG1 fusion protein, and the binding affinity measurement was carried out in an Octet instrument with streptavidin tips.

[38] = target: DH6 anti-DLL3 trispecific protein; assay: Octet BLI, 60/20/6.67/2.22 nM
Method: as §2

[39] = target: 53A05 anti-DLL3 trispecific protein; assay: Octet BLI, streptavidin tips, single 50 nM
Method: as §2, with “proteins, the relative binding affinities” for “proteins, the binding affinities”

[40] = target: 41D07 anti-DLL3 trispecific protein; assay: Octet BLI, streptavidin tips, single 50 nM
Method: as §2, with “proteins, the relative binding affinities” for “proteins, the binding affinities”

[41] = target: DH43 anti-DLL3 trispecific protein; assay: Octet BLI, single 50 nM, four samples of conditioned medium
Method: as §2

[42] = target: DH6 anti-DLL3 trispecific protein; assay: as above
Method: as §2

[43] = target: DH43 anti-DLL3 trispecific protein; assay: Octet BLI, single 60 nM
[44] = target: DH6 anti-DLL3 trispecific protein; assay: Octet BLI, single 60 nM
[45] = target: 51G10 anti-DLL3 trispecific protein (CHO expressed, purified) (biotinylated); assay: Octet BLI, biotinylated trispecific on streptavidin tips
[46] = target: T2, 51G2 anti-DLL3 trispecific protein (CHO expressed, purified) (biotinylated); assay: as above
T2 construct: also called 51G02

Sequence of DH6 anti-DLL3 trispecific protein (chain, as listed by the source): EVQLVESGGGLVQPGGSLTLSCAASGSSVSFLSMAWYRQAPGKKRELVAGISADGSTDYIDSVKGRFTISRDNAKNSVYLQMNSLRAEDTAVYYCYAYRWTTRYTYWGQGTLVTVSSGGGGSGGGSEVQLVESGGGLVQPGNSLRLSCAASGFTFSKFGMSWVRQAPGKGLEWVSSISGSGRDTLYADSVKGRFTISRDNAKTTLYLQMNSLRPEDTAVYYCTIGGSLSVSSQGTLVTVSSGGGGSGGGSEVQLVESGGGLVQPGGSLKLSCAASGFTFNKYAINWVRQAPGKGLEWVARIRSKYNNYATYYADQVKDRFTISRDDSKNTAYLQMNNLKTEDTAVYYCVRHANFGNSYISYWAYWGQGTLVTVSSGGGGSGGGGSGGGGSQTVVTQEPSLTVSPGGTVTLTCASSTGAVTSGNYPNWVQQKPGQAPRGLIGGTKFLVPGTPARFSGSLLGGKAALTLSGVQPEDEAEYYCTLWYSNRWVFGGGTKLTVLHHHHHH
Sequence of DH43 anti-DLL3 trispecific protein (chain, as listed by the source): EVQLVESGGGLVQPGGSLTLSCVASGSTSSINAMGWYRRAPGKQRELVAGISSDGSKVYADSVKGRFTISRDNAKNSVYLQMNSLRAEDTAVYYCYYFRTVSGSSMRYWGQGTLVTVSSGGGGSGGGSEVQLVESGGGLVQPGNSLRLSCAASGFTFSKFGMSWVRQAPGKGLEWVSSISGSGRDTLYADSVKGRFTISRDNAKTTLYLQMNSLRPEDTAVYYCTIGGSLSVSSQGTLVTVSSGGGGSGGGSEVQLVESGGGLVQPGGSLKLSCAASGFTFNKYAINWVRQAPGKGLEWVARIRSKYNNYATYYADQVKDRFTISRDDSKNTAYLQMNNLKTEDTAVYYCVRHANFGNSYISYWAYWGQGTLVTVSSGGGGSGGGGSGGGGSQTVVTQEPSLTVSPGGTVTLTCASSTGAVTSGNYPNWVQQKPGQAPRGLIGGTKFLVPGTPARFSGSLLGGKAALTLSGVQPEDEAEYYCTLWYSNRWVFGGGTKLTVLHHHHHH
Sequence of DH3 anti-DLL3 trispecific protein (chain, as listed by the source): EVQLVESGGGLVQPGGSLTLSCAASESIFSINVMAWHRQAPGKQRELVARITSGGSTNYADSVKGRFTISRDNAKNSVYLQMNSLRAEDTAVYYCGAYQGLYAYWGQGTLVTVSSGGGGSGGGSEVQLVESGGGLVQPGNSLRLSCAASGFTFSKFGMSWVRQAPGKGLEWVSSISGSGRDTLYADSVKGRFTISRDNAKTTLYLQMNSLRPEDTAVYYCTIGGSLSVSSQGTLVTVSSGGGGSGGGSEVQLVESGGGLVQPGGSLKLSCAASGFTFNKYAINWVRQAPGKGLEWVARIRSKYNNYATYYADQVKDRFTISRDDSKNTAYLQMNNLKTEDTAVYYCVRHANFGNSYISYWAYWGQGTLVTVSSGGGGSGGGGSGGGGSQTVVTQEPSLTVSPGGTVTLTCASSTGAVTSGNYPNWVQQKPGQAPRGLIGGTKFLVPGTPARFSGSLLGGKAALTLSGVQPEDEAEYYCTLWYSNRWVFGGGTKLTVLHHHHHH
Sequence of DH61 anti-DLL3 trispecific protein (chain, as listed by the source): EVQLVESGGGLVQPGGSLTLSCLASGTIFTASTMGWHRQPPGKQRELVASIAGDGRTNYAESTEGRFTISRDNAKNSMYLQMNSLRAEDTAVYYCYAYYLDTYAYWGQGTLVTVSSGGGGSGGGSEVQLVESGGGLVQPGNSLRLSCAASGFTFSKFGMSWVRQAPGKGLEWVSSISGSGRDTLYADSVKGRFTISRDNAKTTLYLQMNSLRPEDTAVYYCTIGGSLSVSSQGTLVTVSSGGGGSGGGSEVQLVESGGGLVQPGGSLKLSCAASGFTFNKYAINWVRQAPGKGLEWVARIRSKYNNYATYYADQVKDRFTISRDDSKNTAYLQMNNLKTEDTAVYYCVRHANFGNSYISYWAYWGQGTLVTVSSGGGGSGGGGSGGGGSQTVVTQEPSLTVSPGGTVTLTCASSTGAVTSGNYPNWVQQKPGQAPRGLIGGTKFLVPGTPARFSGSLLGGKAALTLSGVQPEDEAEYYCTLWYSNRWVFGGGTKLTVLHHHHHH
Sequence of DH58 anti-DLL3 trispecific protein (chain, as listed by the source): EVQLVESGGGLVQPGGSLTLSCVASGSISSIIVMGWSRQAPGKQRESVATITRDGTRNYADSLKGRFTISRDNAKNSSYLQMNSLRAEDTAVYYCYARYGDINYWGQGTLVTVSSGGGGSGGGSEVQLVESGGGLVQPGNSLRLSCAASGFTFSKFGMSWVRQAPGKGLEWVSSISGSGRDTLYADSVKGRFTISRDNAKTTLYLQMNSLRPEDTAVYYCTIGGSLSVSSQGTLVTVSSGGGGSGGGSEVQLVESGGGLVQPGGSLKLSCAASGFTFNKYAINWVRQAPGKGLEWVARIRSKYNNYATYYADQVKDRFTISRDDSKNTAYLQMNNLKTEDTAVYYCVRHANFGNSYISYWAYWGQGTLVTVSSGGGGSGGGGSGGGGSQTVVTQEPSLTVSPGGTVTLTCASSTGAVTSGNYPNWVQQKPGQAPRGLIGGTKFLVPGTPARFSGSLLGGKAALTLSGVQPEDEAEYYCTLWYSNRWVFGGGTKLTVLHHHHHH
Sequence of DH11 anti-DLL3 trispecific protein (chain, as listed by the source): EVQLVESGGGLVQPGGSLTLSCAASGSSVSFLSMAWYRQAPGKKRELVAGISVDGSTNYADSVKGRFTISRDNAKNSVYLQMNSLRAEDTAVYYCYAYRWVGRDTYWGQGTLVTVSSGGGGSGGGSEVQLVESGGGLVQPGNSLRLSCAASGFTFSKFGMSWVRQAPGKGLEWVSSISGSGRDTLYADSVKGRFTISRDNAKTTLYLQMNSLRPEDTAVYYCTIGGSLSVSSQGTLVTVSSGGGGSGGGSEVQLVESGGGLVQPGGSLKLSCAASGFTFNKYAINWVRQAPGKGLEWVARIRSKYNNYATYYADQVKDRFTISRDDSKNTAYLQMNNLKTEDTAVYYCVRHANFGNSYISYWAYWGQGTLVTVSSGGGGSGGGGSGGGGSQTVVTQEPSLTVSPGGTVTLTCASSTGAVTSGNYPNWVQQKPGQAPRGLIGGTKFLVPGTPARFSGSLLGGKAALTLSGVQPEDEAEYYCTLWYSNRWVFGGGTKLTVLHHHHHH
Sequence of DH51 anti-DLL3 trispecific protein (chain, as listed by the source): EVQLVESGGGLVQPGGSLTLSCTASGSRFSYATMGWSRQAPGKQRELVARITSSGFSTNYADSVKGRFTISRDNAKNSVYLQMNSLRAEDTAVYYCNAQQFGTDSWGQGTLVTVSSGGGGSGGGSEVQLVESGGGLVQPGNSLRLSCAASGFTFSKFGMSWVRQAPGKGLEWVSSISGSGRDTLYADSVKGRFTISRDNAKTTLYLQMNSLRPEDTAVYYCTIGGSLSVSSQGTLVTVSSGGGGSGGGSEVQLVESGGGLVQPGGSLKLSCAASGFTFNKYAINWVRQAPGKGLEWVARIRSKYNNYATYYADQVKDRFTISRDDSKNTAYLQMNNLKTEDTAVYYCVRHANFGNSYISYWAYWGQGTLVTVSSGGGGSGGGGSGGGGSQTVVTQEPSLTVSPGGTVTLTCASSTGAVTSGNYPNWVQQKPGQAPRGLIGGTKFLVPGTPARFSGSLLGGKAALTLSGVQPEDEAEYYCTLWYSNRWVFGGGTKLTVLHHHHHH
Sequence of DH22 anti-DLL3 trispecific protein (chain, as listed by the source): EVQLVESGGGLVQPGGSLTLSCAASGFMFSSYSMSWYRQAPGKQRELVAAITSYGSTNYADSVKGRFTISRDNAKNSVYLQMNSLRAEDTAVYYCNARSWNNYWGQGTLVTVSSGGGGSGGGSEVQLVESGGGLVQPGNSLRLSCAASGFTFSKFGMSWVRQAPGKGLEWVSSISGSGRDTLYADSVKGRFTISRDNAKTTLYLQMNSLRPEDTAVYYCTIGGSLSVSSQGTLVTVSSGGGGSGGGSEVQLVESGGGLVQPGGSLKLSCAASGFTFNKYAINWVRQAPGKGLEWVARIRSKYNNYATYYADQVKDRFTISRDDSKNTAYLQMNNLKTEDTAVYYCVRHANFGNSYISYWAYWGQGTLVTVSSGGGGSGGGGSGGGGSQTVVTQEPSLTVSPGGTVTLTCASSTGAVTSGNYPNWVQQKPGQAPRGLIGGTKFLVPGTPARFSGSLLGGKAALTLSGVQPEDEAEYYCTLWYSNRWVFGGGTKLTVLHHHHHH
Sequence of DH89 anti-DLL3 trispecific protein (chain, as listed by the source): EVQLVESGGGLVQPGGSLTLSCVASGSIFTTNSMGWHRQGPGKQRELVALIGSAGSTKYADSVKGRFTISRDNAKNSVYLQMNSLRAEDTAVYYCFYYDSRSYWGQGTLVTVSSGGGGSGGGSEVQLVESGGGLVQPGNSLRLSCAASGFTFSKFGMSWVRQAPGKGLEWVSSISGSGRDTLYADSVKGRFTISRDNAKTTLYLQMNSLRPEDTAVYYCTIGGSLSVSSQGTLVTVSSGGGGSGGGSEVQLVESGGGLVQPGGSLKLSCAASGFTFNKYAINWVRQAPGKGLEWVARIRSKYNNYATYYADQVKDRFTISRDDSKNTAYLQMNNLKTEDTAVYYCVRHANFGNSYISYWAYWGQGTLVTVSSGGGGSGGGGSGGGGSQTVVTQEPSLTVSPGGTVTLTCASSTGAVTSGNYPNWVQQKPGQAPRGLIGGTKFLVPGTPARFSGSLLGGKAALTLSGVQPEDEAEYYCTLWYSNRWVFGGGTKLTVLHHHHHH

- Kd [1]: 10.7 nM
- Kd [2]: 25 nM
- Kd [3]: 5.6 nM
- binding result [4]: no binding (tested: 50 nM)
- binding result [5]: no binding (tested: 50 nM)
- binding result [6]: no binding (tested: 50 nM)
- Kd [7]: 5.9 nM
- Kd [8]: 14.6 nM
- Kd [9]: 16.4 nM
- binding result [10]: no binding (tested: 50 nM)
- Kd [11]: 11.3 nM
- binding result [12]: no binding (tested: 50 nM)
- binding result [13]: no binding (tested: 50 nM)
- binding result [14]: no binding (tested: 50 nM)
- Kd [15]: 11.7 nM
- Kd [16]: 5.5 nM
- Kd [17]: 2.8 nM
- Kd [18]: 5.5 nM
- Kd [19]: 18.2 nM
- Kd [20]: 42.4 nM
- Kd [21]: 8 nM
- Kd [22]: 27.9 nM
- Kd [23]: 6.8 nM
- Kd [24]: 30.8 nM
- Kd [25]: 8.2 nM
- Kd [26]: 7 nM
- Kd [27]: 86.2 nM
- Kd [28]: 5.5 nM
- binding result [29]: no binding (tested: 50 nM)
- binding result [30]: no binding (tested: 50 nM)
- Kd [31]: 17.9 nM
- binding result [32]: no binding (tested: 50 nM)
- Kd [33]: 17.5 nM
- Kd [34]: 9.6 nM
B1: cynomolgus monkey DLL3 protein expressed as human IgG1-Fc fusion (Fc fusion, Macaca fascicularis)
chain: AGVFELQIHSFGPGPGGAPRSPYSARGPCRLFFRVCLKPGLSEEAAESPCALGAALSARGPVYTEQPEAPAPDLPLPNGLLQVPFRDAWPGTFSLIIETWREELGDQIGGPAWSLLARVTRRRRLAAGGPWAGDIQRAGAWELRFSYRARCELPAVGTACTRLCRPRSASRCGPGLRPCAPLEDECEAPPVCRAGCSLEHGFCEQPGECRCLEGWTGPLCMVPVSTSSCLGLRGPSSTTTGCLVPGPGPCDGNPCANGGSCSETPGSFECTCPRGFYGLRCEVSGVTCADGPCFNGGLCVGGADPDSAYICHCPPGFQGSNCEKRVDRCSLQPCRNGGLCLDLGHALRCRCRAGFAGPRCEHDLNDCAGRACANGGTCVEGGGAHRCSCALGFGGRDCRERADPCAARPCAHGGRCYAHFSGLVCACAPGYMGARCEFPVHPDGVSALPAAPPGLRPGDPQRYP
notes: also called cyDLL3; not shown: human IgG1 Fc

- Kd [35]: 42 nM
- Kd [1]: 3.5 nM
- Kd [2]: 3.9 nM
- Kd [3]: 5.3 nM
- Kd [4]: 1.3 nM
- Kd [5]: 17.4 nM
- Kd [6]: 7 nM
- Kd [7]: 1 nM
- Kd [8]: 6.5 nM
- Kd [9]: 6.8 nM
- Kd [10]: 9.9 nM
- Kd [11]: 2.1 nM
- Kd [12]: 5.6 nM
- Kd [13]: 41.9 nM
- Kd [14]: 11.9 nM
- Kd [15]: 4.3 nM
- Kd [16]: 4.3 nM
- Kd [17]: 1.9 nM
- Kd [18]: 0.5 nM
- Kd [19]: 5.1 nM
- Kd [20]: 20.6 nM
- Kd [21]: 8.1 nM
- Kd [22]: 3.3 nM
- Kd [23]: 6.1 nM
- Kd [24]: 10.6 nM
- Kd [25]: 8.4 nM
- Kd [26]: 1.2 nM
- Kd [27]: 16.2 nM
- Kd [28]: 0.8 nM
- Kd [29]: 6.6 nM
- Kd [30]: 4.7 nM
- Kd [31]: 15.2 nM
- Kd [32]: 6.9 nM
- Kd [33]: 18 nM
- Kd [34]: 2.6 nM
B2: human DLL3 protein expressed as human IgG1-Fc fusion (Fc fusion)
chain: AGVFELQIHSFGPGPGPGAPRSPCSARLPCRLFFRVCLKPGLSEEAAESPCALGAALSARGPVYTEQPGAPAPDLPLPDGLLQVPFRDAWPGTFSFIIETWREELGDQIGGPAWSLLARVAGRRRLAAGGPWARDIQRAGAWELRFSYRARCEPPAVGTACTRLCRPRSAPSRCGPGLRPCAPLEDECEAPLVCRAGCSPEHGFCEQPGECRCLEGWTGPLCTVPVSTSSCLSPRGPSSATTGCLVPGPGPCDGNPCANGGSCSETPRSFECTCPRGFYGLRCEVSGVTCADGPCFNGGLCVGGADPDSAYICHCPPGFQGSNCEKRVDRCSLQPCRNGGLCLDLGHALRCRCRAGFAGPRCEHDLDDCAGRACANGGTCVEGGGAHRCSCALGFGGRDCRERADPCAARPCAHGGRCYAHFSGLVCACAPGYMGARCEFPVHPDGASALPAAPPGLRPGDPQRYL
notes: also called huDLL3; not shown: human IgG1 Fc

- Kd [36]: 2.2 nM
B3: human DLL3 (Example 6) (ligand)
chain: B2 chain
notes: also called huDLL3

- Kd [37]: 8.9 nM
- Kd [38]: 9 nM
- Kd [39]: 0.3 nM
- Kd [40]: 34 nM
- Kd [41]: 7.7 nM
- Kd [42]: 9.9 nM
B4: biotinylated human DLL3 protein expressed as a human IgG1 fusion protein (Fc fusion, not shown: a dimerising Fc or GST)
chain: B2 chain
modifications: biotinylated

- Kd [43]: 8.5 nM
- Kd [44]: 10 nM
- Kd [45]: 1.4 to 3.4 nM
- Kd [46]: 1.4 to 3.4 nM
B5: cynomolgus DLL3 (ligand)
chain: B1 chain
notes: also called cyDLL3
